The results in this text go back to PMC7429481, “Signalling, trafficking and glucoregulatory properties of glucagon‐like peptide‐1 receptor agonists exendin‐4 and lixisenatide” (British Journal of Pharmacology, 2020).

For this test, the target named is human SNAP‐GLP‐1 receptor (HEK293‐SNAP‐GLP‐1 receptor cells) (human) (UniProt P43220). Kind of test: FRET or BRET. For orientation: BRET reads energy transfer from a luciferase to a nearby fluorophore.
Sequence of human SNAP‐GLP‐1 receptor (HEK293‐SNAP‐GLP‐1 receptor cells) (human) (P43220 24-463): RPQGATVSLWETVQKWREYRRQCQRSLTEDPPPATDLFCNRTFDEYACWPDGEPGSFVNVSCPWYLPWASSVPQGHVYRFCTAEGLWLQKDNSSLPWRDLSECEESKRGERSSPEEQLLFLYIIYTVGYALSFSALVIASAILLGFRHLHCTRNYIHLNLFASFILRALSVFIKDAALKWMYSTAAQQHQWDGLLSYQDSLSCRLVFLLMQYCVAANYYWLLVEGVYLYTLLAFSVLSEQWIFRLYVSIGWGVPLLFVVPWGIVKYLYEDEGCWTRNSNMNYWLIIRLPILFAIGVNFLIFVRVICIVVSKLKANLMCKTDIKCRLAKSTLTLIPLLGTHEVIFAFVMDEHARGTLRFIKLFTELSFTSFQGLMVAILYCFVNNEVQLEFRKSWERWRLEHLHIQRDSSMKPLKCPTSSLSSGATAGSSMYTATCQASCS

With “exendin‐4 (from UniProt P26349 48-87) (peptide)”, the log KD is -9.2.
The value for lixisenatide (peptide) was -9.
